How the values were obtained:
[1] = target: T1, murine PDGFRa on NIH3T3 cells (murine, UniProt P26618 25-1089); experiment: FACS on NIH3T3 cells, goat anti-human IgG Cy5
T1 construct: whole, on cells; also called mouse PDGFR-alpha
Protocol: To set up animal xenograft studies, mouse cross-reactivity was determined using FACS analysis performed with NIH3T3 cells, a murine fibroblast line which expresses endogenous PDGFRa. […] Cells were rinsed and analyzed by FACS for the presence of Cy5.

[2] = target: PDGFR-alpha on human osteosarcoma MG-63 cells (human, UniProt P16234 24-1089); experiment: cell-based or functional assay
[3] = target: T2, PDGFR-alpha on MG-63 cells (human, UniProt P16234 24-1089); experiment: cell-based or functional assay
[4] = target: T2, PDGFR-alpha on MG-63 cells; experiment: cell-based or functional assay; remark: listed apart in the source

T2 sequence (P16234 24-1089): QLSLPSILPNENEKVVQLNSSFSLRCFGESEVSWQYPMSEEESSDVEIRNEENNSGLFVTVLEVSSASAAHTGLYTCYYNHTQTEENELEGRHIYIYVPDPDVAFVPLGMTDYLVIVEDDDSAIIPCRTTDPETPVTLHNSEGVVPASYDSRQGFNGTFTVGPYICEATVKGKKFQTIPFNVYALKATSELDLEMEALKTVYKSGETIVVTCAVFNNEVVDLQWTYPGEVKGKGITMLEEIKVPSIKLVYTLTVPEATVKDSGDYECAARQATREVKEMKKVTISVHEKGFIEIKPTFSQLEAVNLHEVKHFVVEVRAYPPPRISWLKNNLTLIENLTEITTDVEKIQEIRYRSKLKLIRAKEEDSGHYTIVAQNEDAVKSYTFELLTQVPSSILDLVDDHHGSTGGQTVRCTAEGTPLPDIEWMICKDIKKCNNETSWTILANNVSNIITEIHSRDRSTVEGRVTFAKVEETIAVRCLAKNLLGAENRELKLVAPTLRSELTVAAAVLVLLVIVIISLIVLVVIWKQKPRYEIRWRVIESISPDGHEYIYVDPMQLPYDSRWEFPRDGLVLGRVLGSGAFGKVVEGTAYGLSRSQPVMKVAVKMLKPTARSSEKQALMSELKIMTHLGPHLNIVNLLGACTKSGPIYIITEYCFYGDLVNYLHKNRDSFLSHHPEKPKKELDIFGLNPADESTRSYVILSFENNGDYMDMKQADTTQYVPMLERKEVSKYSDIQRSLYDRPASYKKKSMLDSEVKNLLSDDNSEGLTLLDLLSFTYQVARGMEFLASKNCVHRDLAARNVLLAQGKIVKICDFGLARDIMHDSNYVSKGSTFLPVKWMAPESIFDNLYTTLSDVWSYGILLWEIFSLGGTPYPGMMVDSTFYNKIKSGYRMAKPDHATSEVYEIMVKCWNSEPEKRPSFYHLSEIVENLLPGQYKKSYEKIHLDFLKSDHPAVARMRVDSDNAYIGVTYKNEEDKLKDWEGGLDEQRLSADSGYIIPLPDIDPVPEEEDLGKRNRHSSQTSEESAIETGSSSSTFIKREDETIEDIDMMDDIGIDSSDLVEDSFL
PDGFR-alpha on human osteosarcoma MG-63 cells, sequence (P16234 24-1089): as above
T1 sequence (P26618 25-1089): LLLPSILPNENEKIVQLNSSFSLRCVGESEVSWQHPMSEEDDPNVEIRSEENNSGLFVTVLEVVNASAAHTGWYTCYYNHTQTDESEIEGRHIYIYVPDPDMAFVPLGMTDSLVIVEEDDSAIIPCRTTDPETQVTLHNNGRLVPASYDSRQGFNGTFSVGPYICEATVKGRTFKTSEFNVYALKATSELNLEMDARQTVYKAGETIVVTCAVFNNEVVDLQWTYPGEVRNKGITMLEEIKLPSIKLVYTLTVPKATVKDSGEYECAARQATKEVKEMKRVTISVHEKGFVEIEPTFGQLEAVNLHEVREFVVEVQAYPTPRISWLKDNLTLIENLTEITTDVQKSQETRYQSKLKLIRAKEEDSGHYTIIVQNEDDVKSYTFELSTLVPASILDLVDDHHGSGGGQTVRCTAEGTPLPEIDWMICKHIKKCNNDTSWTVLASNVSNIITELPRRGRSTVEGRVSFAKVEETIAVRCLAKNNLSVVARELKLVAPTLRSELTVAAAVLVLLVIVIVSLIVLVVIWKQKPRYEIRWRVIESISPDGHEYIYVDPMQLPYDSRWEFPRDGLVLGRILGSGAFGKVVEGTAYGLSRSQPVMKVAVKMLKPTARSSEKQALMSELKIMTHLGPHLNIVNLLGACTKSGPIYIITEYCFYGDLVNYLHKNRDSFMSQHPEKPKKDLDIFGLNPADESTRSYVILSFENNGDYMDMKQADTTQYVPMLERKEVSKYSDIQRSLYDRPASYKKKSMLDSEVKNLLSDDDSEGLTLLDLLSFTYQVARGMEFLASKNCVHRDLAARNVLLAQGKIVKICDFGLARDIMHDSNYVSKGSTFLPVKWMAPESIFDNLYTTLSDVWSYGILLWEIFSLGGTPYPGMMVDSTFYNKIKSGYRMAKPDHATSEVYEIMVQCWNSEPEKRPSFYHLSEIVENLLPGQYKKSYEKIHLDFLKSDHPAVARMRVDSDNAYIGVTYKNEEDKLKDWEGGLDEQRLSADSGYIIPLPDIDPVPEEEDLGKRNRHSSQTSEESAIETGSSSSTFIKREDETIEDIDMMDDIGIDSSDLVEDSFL

| Binder | binding result [1] | Proliferation Assay: IC50 ng/ml (1-6-06) [2] [ng/mL] | Proliferation Assay: IC50 ng/ml (1-23-06) [2] [ng/mL] | Proliferation Assay: IC50 (1-6-06) [2] [nM] | Proliferation Assay: IC50 (1-23-06) [2] [nM] | pTyr Assay: % Inhibition @ 2 µg/ml [2] [%] | Average pTyr Inhibition [3] [%] | PROLIFERATION ASSAY: MG-63 CELLS, IC50 [4] [nM] |
| --- | --- | --- | --- | --- | --- | --- | --- | --- |
| 3.341.2 (antibody, V domains shown, Only variable regions) VH: EVQLVESGGGLVQPGGSLRLSCAASGFTFSSYSMNWVRQAPGKGLEWVSFISGSSSTMYYADSVKGRFTISRDNAKNSLYLQMNSLRDEDTAVYYCARLRYFDWSYAFDIWGQGTMVTVSS VL: DIQMTQSPSSVSTSVGDRVTITCRASQGIRSWLAWYQQRPGKAPKLLIYAASSLQNGVPSRFSGSGSGTDFTLTISSLQPEDFATYFCQQATSFPFTFGPGTKVDIN | no binding (tested: 10 ug/ml) | 404 | 471 | 2.7 | 3.1 | 100 | – | – |
| 3.341.2 (antibody, V domains shown) VH: EVQLVESGGGLVQPGGSLRLSCAASGFTFSSYSMNWVRQAPGKGLEWVSFISGSSSTMYYADSVKGRFTISRDNAKNSLYLQMNSLRDEDTAVYYCARLRYFDWSYAFDIWGQGTMVTVSS VL: DIQMTQSPSSVSTSVGDRVTITCRASQGIRSWLAWYQQRPGKAPKLLIYAASSLQNGVPSRFSGSGSGTDFTLTISSLQPEDFATYFCQQATSFPFTFGPGTKVDIN | – | – | – | – | – | – | > 100 | 3.1 |
| 5.16.1 (antibody, V domains shown) VH: QVQLVQSGAEVKKPGASVKVSCKASGYTFTSYYMYWVRQAPGQGLEWMGIINPSGGSTSYAQKFQGRVTMTRDTSTSTVYMELSSLRSEDTAVYYCARGSSPFFDYWGQGTLVTVSS VL: DIQMTQSPSSLSASVGDRVTITCRASQIISHFLNWYQQKPGKAPKLLVYVASSLQSGVPSRFSGSGSGTDFTLTISSLQPEDFATYYCQQSFSIPLTFGGGTKVEIK [5.16.1, listing 1 of 2 here] | no binding (tested: 10 ug/ml) | 386 | 423 | 2.57 | 2.81 | 99 | – | – |
| 5.16.1 (antibody, V domains shown) VH: QVQLVQSGAEVKKPGASVKVSCKASGYTFTSYYMYWVRQAPGQGLEWMGIINPSGGSTSYAQKFQGRVTMTRDTSTSTVYMELSSLRSEDTAVYYCARGSSPFFDYWGQGTLVTVSS VL: DIQMTQSPSSLSASVGDRVTITCRASQIISHFLNWYQQKPGKAPKLLVYVASSLQSGVPSRFSGSGSGTDFTLTISSLQPEDFATYYCQQSFSIPLTFGGGTKVEIK [5.16.1, listing 2 of 2 here] | – | – | – | – | – | – | – | 2.8 |
| 2.796.2 (antibody, V domains shown) VH: QVQLVESGGGLVKPGGSLRLSCAASGFTFSDYYMNWIRQAPGKGLEWVSYISSSGSIIYYADSVKGRFTISRDNAKNSLYLQMNSLRAEDTAVYYCARDGHIAARGMDVWGQGTTVTVSS VL: DIQMTQSPSSLSASVGDRVTITCRASQSFSRYINWYQQKPGKAPKLLIYAASSLQGGVPSRFSGSGSGTDFTLTISSLQPEDFATYYCQQTYSNPPITFGQGTRLEIK [2.796.2, listing 1 of 2 here] | no binding (tested: 10 ug/ml) | 498 | 757 | – | – | 99 | – | – |
| 2.1623.2 (antibody, V domains shown) VH: QVQLVESGGGLVKPGGSLRLSCAASGFTFSDYYMNWIRQAPGKGLEWVSFISSSGSTIYYADSVKGRFTISRDNAKNSLYLQMNSLRAEDTAVYYCARDGHIAARGMDVWGQGTTVTVSS VL: DIQMTQSPSSLSASVGDRVTITCRASQSFSRYINWYQQKPGKAPKLLIYAASSLQGGVPSRFSGSGSGTDFTLAISSLQPEDFATYYCQQTYSTPPITFGQGTRLEIK | – | – | – | – | – | – | > 100 | 6.5 |
| 2.796.2 (antibody, V domains shown) VH: QVQLVESGGGLVKPGGSLRLSCAASGFTFSDYYMNWIRQAPGKGLEWVSYISSSGSIIYYADSVKGRFTISRDNAKNSLYLQMNSLRAEDTAVYYCARDGHIAARGMDVWGQGTTVTVSS VL: DIQMTQSPSSLSASVGDRVTITCRASQSFSRYINWYQQKPGKAPKLLIYAASSLQGGVPSRFSGSGSGTDFTLTISSLQPEDFATYYCQQTYSNPPITFGQGTRLEIK [2.796.2, listing 2 of 2 here] | – | – | – | – | – | – | 93 | 5 |
| 2.737.1.4 (antibody, V domains shown) VH: QVQLVESGGGLVKPGGSLRLSCAASGFTFRDYYMSWIRQAPGKGLEWVAFISSSGSIIYYADSVKGRFTISRDNAKNSLFLQMNSLRAEDTAVYYCARDGHIAARGMDVWGQGTTVTVSS VL: DIQMTQSPSSLSASVGDRVTITCRASQSINKYINWYQQKPGKAPKLLIYAASSLQSGVPSRFNGSGSGTDFTFTINTLQPEDFATYYCQQTYSTPPITFGQGTRLEIK | – | – | – | – | – | – | 93 | 3.72 |
| 2.1853.3 (antibody, V domains shown) VH: QVQLVESGGGLVKPGGSLRLSCAASGFTFSDYYMNWIRQAPGKGLEWVSYISSSGSIIYYADSVKGRFTISRDNAKNSLYLQMNSLRAEDTAVYYCARDGRIVARGMDVWGQGTTVTVSS VL: DIQMTQSPSSLCASVGDRVTITCRASRSITRYLNWYQQKPGKAPKLLIYGASSLQSGVPSRFSGSGSGTDFTLTISSLQPEDFATYYCQQSYSTPPITFGQGTRLEIK | – | – | – | – | – | – | > 100 | 18 |
| 2.2071.1.3 (antibody, V domains shown) VH: QVQLVESGGGLVKPGGSLRLSCAASGFTFSDYYMNWIRQAPGKGLEWVSYISSSGSIIYYADSVKGRFTISRDNAKNSLYLQMNSLRAEDTAVYYCARDGRIVARGMDVWGQGTTVTVSS VL: DIQMTQSPSSLSASVGDRVTLTCRASHSINRYINWYQQKPGKAPKLLIYAASSLQSGVPSRFSGNGSGTDFTLTISSLQPEDFATYYCQQSYSTPPITFGQGTRLEIT [2.2071.1.3, listing 1 of 2 here] | – | – | – | – | – | – | > 100 | 3.3 |
| 2.2071.1.3 (antibody, V domains shown) VH: QVQLVESGGGLVKPGGSLRLSCAASGFTFSDYYMNWIRQAPGKGLEWVSYISSSGSIIYYADSVKGRFTISRDNAKNSLYLQMNSLRAEDTAVYYCARDGRIVARGMDVWGQGTTVTVSS VL: DIQMTQSPSSLSASVGDRVTLTCRASHSINRYINWYQQKPGKAPKLLIYAASSLQSGVPSRFSGNGSGTDFTLTISSLQPEDFATYYCQQSYSTPPITFGQGTRLEIT [2.2071.1.3, listing 2 of 2 here] | no binding (tested: 10 ug/ml) | 1280 | 492 | 8.5 | 3.3 | 99 | – | – |
| 2.414.2 (antibody, V domains shown) VH: QLQLQESGPGLVKPSETLSLTCTVSGGSISSSNYYWGWIRQPPGKGLEWIGTIYYTGSTYYNPSLKSRVTISVDTSKNQFSLKLSSVTAADTAVYYCARHHWVFDYWGQGTLVTVSS VL: EIVLTQSPDFLSVTPKEKVTITCRASQIIGSSLHWYQQKPDQSPKLLIKYASQSFSGVPSRFSGSGSGTDFTLTLNSLEAEDAATYYCHQSTILPWTFGQGTKVEIK [2.414.2, listing 1 of 2 here] | no binding (tested: 10 ug/ml) | 658 | 349 | 4.4 | 2.3 | 99 | – | – |
| 2.414.2 (antibody, V domains shown) VH: QLQLQESGPGLVKPSETLSLTCTVSGGSISSSNYYWGWIRQPPGKGLEWIGTIYYTGSTYYNPSLKSRVTISVDTSKNQFSLKLSSVTAADTAVYYCARHHWVFDYWGQGTLVTVSS VL: EIVLTQSPDFLSVTPKEKVTITCRASQIIGSSLHWYQQKPDQSPKLLIKYASQSFSGVPSRFSGSGSGTDFTLTLNSLEAEDAATYYCHQSTILPWTFGQGTKVEIK [2.414.2, listing 2 of 2 here] | – | – | – | – | – | – | 98 | 2.3 |
| 2.542.2 (antibody, V domains shown) VH: QLQLQESGPGLVKPSETLSLTCTVSGGSISSSTYYWGWIRQPPGKGLEWIGTIYYSGSTYYNPSLKSRVTISVDTSKNQFSLKLNSVTAADTAVYYCARHHWVFDYWGQGTLVTVSS VL: EIVLTQSPDFLSVTPKEKVTITCRASQIIGSSLHWYQQKPDQSPNLLIKYASQSVSGVPSRFSGSGSGTDFTLTLNSLEAEDAATYYCHQSTILPWTFGQGTKVEIK [2.542.2, listing 1 of 2 here] | – | – | – | – | – | – | 91 | 4.35 |
| 2.542.2 (antibody, V domains shown) VH: QLQLQESGPGLVKPSETLSLTCTVSGGSISSSTYYWGWIRQPPGKGLEWIGTIYYSGSTYYNPSLKSRVTISVDTSKNQFSLKLNSVTAADTAVYYCARHHWVFDYWGQGTLVTVSS VL: EIVLTQSPDFLSVTPKEKVTITCRASQIIGSSLHWYQQKPDQSPNLLIKYASQSVSGVPSRFSGSGSGTDFTLTLNSLEAEDAATYYCHQSTILPWTFGQGTKVEIK [2.542.2, listing 2 of 2 here] | no binding (tested: 10 ug/ml) | 1040 | 652 | – | – | 99 | – | – |
| 2.351.3 (antibody, V domains shown) VH: QVQLVQSGAEVKKPGASVKVSCKASGYTFIGYYLHWVRQAPGQGLEWMGSINPNSGGTNYAQKFQGRVTMIRDTSINTAYMELSRLRSDDTAVYYCARDKRITMVRGVHYLYYGWDVWGQGTTVTVSS VL: DIQMTQSPSSLSASVGDRVTITCRASQVISNYLAWYQQKPGKVPQLLIYAASTLQSGVPSRFSGSGSGTDFTLTISSLQPEDVATYYCQNYKSAPWTFGQGTKVEIK | – | – | – | – | – | – | 97 | 4.3 |

From patent US20090324601A1 (published 2009)
